Reference: US20190321478A1 (IMMATICS BIOTECHNOLOGIES, published 2019)

target: HLA-A*02-presented MAGEA1-003 (on target cells) (human); assay: cell-based or functional assay

Binder | EC50 of IFNγ release, T2 cells loaded with titrated MAGEA1-003 peptide
TCR R59P2E7 (TCR, V domains shown) V domain 1: KQEVTQIPAALSVPEGENLVLNCSFTDSAIYNLQWFRQDPGKGLTSLLLIQSSQREQTSGRLNASLDKSSGRSTLYIAASQPGDSATYLCAVNSDYKLSFGAGTTVTVRA V domain 2: AAGVIQSPRHLIKEKRETATLKCYPIPRHDTVYWYQQGPGQDPQFLISFYEKMQSDKGSIPDRFSAQQFSDYHSELNMSSLELGDSALYFCASSLGLGTGDYGYTFGSGTRLTVVE | 386 nM
TCR R37P1H1 (TCR, V domains shown) V domain 1: AQTVTQSQPEMSVQEAETVTLSCTYDTSESNYYLFWYKQPPSRQMILVIRQEAYKQQNATENRFSVNFQKAAKSFSLKISDSQLGDTAMYFCAFGYSGGGADGLTFGKGTHLIIQP V domain 2: DAGVTQSPTHLIKTRGQQVTLRCSPKSGHDTVSWYQQALGQGPQFIFQYYEEEERQRGNFPDRFSGHQFPNYSSELNVNALLLGDSALYLCASSNEGQGWEAEAFFGQGTRLTVVE | 26 nM
TCR R26P2A6 (TCR, V domains shown) V domain 1: QKEVEQDPGPLSVPEGAIVSLNCTYSNSAFQYFMWYRQYSRKGPELLMYTYSSGNKEDGRFTAQVDKSSKYISLFIRDSQPSDSATYLCAMSDVSGGYNKLIFGAGTRLAVHP V domain 2: EAQVTQNPRYLITVTGKKLTVTCSQNMNHEYMSWYRQDPGLGLRQIYYSMNVEVTDKGDVPEGYKVSRKEKRNFPLILESPSPNQTSLYFCASTTPDGTDEQFFGPGTRLTVLE | 100 nM
TCR R26P1A9 (TCR, V domains shown) V domain 1: SQQGEEDPQALSIQEGENATMNCSYKTSINNLQWYRQNSGRGLVHLILIRSNEREKHSGRLRVTLDTSKKSSSLLITASRAADTASYFCLIGASGSRLTFGEGTQLTVNP V domain 2: DAGVIQSPRHEVTEMGQEVTLRCKPISGHDYLFWYRQTMMRGLELLIYFNNNVPIDDSGMPEDRFSAKMPNASFSTLKIQPSEPRDSAVYFCASSYFGWNEKLFFGSGTQLSVLE | 6 nM
TCR R42P3A9 (TCR, V domains shown) V domain 1: GIQVEQSPPDLILQEGANSTLRCNFSDSVNNLQWFHQNPWGQLINLFYIPSGTKQNGRLSATTVATERYSLLYISSSQTTDSGVYFCAVHNFNKFYFGSGTKLNVKP V domain 2: AAGVIQSPRHLIKEKRETATLKCYPIPRHDTVYWYQQGPGQDPQFLISFYEKMQSDKGSIPDRFSAQQFSDYHSELNMSSLELGDSALYFCASSLLGQGYNEQFFGPGTRLTVLE | 823 nM
